In article PMC3923439, “Anti-inflammatory properties of a novel peptide interleukin 1 receptor antagonist” (Journal of Neuroinflammation, 2014):

T1: ectodomain of IL-1RI (Homo sapiens, UniProt P14778)
T1 construct: the recombinant ectodomain of IL-1RI (R&D Systems) was injected; purchased R&D Systems
T1 sequence (P14778 18-336 limits assumed): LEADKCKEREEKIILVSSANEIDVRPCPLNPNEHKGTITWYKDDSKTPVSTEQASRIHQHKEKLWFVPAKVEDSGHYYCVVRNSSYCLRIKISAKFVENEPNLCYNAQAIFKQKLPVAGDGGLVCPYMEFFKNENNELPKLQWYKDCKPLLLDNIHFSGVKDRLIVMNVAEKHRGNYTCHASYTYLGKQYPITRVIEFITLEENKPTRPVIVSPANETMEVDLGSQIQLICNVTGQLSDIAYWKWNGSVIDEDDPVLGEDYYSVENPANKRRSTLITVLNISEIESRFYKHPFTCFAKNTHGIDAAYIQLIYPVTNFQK


Tests used:
[1] = tested on: Cerebellar granule neurons; assay: Survival of cerebellar granule neurons induced to undergo apoptosis by low potassium; assay type: cell-based, rat; conditions: 5 mM KCl, survival estimated 48 hours later
Method: (§1) Cerebellar granule neurons (CGNs) were prepared from 7-day-old Wistar rats (from Charles River Laboratories, Sulzfeld, Germany; or from Hygind Møllegård Erik Møllegaard Hansen, Ejby, Denmark) as previously described. Briefly, the cerebella were cleared of meninges and blood vessels, roughly homogenized by chopping and trypsinized. The cells were washed in the presence of DNAse I and soybean trypsin inhibitor (Sigma-Aldrich, St Louis, MO, USA), and cellular debris was pelleted by centrifugation. The fibroblastoid mouse cell line L929 (LVN; European Collection of Cell Cultures, Porton Down, UK) was routinely grown at 37°C with 5% CO2 in DMEM supplemented with 10% (vol/vol) FCS, 2 mM GlutaMAX, 100 U/ml penicillin and 100 μg/ml streptomycin.
(§2) Cerebellar granule neurons were plated at a density of 1 × 10^5 cells/cm^2 on poly-L-lysine-coated, eight-well Permanox Lab-Tek chamber slides (Nunc) in Neurobasal-A medium supplemented with 2% (vol/vol) B27 (Gibco BRL), 0.5% (vol/vol) GlutaMAX, 100 U/ml penicillin and 100 μg/ml streptomycin. The CGN survival assay was performed as previously described. The neurite outgrowth assay was also performed as previously described.
Figure 5 Effect of Ilantide and interleukin 1 receptor antagonist on survival of cerebellar granule neurons induced to undergo apoptosis. The neurons were allowed to differentiate for 7 days in a high-potassium (40 mM) medium before apoptosis was induced by changing to a low-potassium medium (5 mM). Survival was estimated 48 hours later. (A) The effect of insulin-like growth factor 1 (IGF-1), interleukin 1 receptor antagonist (IL-1Ra) and IL-1β on cerebellar granule neuron (CGN) apoptosis induced by 5 mM KCl. (B) The effect of Ilantide-m on CGN apoptosis induced by 5 mM KCl. […] The results from at least four independent experiments are expressed as mean ± SEM with untreated cultures induced to undergo apoptosis by 5 mM KCl set at 100%. *P < 0.05 and **P < 0.01 compared with untreated cultures induced to undergo apoptosis (one-way analysis of variance followed by Newman-Keuls post hoc test).

ectodomain of IL-1RI = biological target: T1, ectodomain of IL-1RI; assay: Surface plasmon resonance binding of immobilized ligand to recombinant IL-1RI ectodomain; conditions: SPR, Biacore 2000, ligand immobilized on CM4 chip, IL-1RI ectodomain injected, 25°C
Method: (§3) The binding analysis was performed using a Biacore 2000 instrument (GE Healthcare Life Sciences) that contained 150 mM NaCl as running buffer at 25°C with 10 mM sodium phosphate (pH 7.4). The flow rate was 5 μl/min during immobilization. Ilantide peptide, IL-1β or IL-1Ra was immobilized on a CM4 sensor chip according to the manufacturer’s instructions, after which the recombinant ectodomain of IL-1RI (R&D Systems) was injected. The neural cell adhesion molecule (NCAM) immunoglobulin modules 1 and 2 (Ig1 and Ig2) were used as a negative control protein [9]. The data were analyzed using nonlinear curve-fitting with the manufacturer’s software.

[2] = tested on: double-Ig module (Ig1-Ig2) of NCAM; assay: Surface plasmon resonance, negative control protein; assay type: binding; conditions: SPR
Method: as §3

[3] = tested on: Cerebellar granule neurons; assay: Neurite outgrowth from cerebellar granule neurons; assay type: cell-based, rat; conditions: for Neurite outgrowth from CGNs: 7-day-old CGNs grown on fibroblast cells, 24 hours
Method: as §1, §2
Figure 6 Effect of Ilantide on neurite outgrowth from cerebellar granule neurons. Cerebellar granule neuron cultures were treated with interleukin 1 receptor antagonist (IL-1Ra) (A), soluble interleukin 1 receptor type I (sIL-1RI) (B), Ilantide-t (C) or IL-1β (D) for 24 hours. The cultures were fixed and immunostained with rabbit anti-rat growth-associated protein 43 (anti-GAP-43) primary antibodies and then with secondary Alexa Fluor 488 goat anti-rabbit antibodies. (E) Effect of IL-1β on neurite outgrowth induced by IL-1Ra. (F) Effect of IL-1β on neurite outgrowth induced by Ilantide-t. The results from three to four independent experiments are expressed as percentage ± SEM with untreated controls set at 100%, corresponding to an average neurite length of 19.3 ± 4.1 μm. *P < 0.05 and **P < 0.01 compared with untreated controls (A to D) or cultures treated with either IL-1Ra or Ilantide alone (E and F) by one-way analysis of variance followed by the Newman-Keuls post hoc test).

[4] = tested on: HEK-Blue IL-1β cells (IL-1RI / NF-κB); assay: IL-1β-induced NF-κB activation, SEAP reporter; assay type: cell-based; conditions: 1.2 pM IL-1β, 24 hours, SEAP read at 600 nm, four independent experiments
Method: HEK-Blue IL-1β cells that contained an IL-1β-sensitive reporter (InvivoGen, San Diego, CA, USA) and HEK-Blue IL-6 cells that contained an IL-6-sensitive reporter (InvivoGen) were grown at 37°C with 5% CO2 in Dulbecco’s modified Eagle’s medium (DMEM) supplemented with 5% (vol/vol) fetal calf serum (FCS), 4.5 g/L glucose, 2 mM GlutaMAX medium, 100 U/ml penicillin, 100 μg/ml streptomycin (all obtained from Gibco BRL/Life Technologies, Taastrup, Denmark), 100 μg/ml zeocin, 200 μg/ml hygromycin and 100 μg/ml Normocin (all purchased from InvivoGen).
HEK-Blue IL-1β cells allow the monitoring of the activation of the NF-κB pathway specifically in response to IL-1β. They express a NF-κB-inducible secreted embryonic alkaline phosphatase (SEAP) reporter gene. The binding of IL-1β to its receptor IL-1RI on the surface of HEK-Blue IL-1β cells triggers a signaling cascade that leads to the activation NF-κB and the subsequent production of SEAP. HEK-Blue IL-1β cells were grown as described above. The cells were seeded onto a 96-well plate at a density 3.5 × 10^5 cells/ml. For the NF-κB activation assay, the cells were treated with 1.2 pM IL-1β alone or together with sIL-1RI, IL-1Ra or various concentrations of Ilantide. After 24 hours of incubation at 37°C, 150 μl of the cell supernatants were added to each well of a 96-well plate together with 50 μl of QUANTI-Blue (InvivoGen), incubated at 37°C for 40 minutes and measured in an enzyme-linked immunosorbent assay (ELISA) reader at 600 nm to determine the expression levels of reporter genes activated by NF-κB.

AMJ2-C8 macrophages = assay: TNF-α secretion from IL-1β-activated macrophages (L929 bioassay); assay type: cell-based, mouse; conditions: 1.2 pM IL-1β, 24 hours; TNF-α by L929 survival with actinomycin D; hydrocortisone at 100 μM
Method: A murine alveolar macrophage cell line, AMJ2-C8 (American Type Culture Collection, Borås, Sweden), was routinely grown at 37°C with 5% CO2 in DMEM supplemented with 5% (vol/vol) FCS, 0.5% (v/v) 2-[4-(2-hydroxyethyl)piperazin-1-yl]ethanesulfonic acid (HEPES) (Gibco BRL), 2 mM GlutaMAX, 100 U/ml penicillin and 100 μg/ml streptomycin.
AMJ2-C8 macrophages were seeded into six-well multidishes at a density of 2.5 × 10^5 cells/well, and sIL-1RI, IL-1Ra or various concentrations of Ilantide were added to the cultures. Treatment with 100 μM hydrocortisone (Sigma-Aldrich, Brøndby, Denmark) was used as a positive control. After 10-minute incubation at 37°C, 1.2 pM IL-1β or IFN-γ (R&D Systems) was added to activate the macrophages. L929 cells were seeded onto a 96-well plate (Nunc, Roskilde, Denmark) at a density 0.2 × 10^2 cells/ml. Both cell cultures were incubated for 24 hours at 37°C. Conditioned medium from macrophages was collected and added to the L929 cell cultures together with actinomycin D (0.6 μg/well; Sigma-Aldrich). TNF-α is known to induce classic apoptosis in L929 cells in the presence of actinomycin D [12]. After 24-hour incubation at 37°C, 20 μl of 3-(4,5-dimethylthiazol-2-yl)-5-(3-carboxymethoxyphenyl)-2-(4-sulfophenyl)-2H-tetrazolium (Promega, Madison, WI, USA) were added to each well and incubated at 37°C in the dark for 45 minutes, then measured in an ELISA reader at 490 nm. To calculate the amount of TNF-α in the conditioned medium, fibroblasts were treated with standard concentrations of TNF-α (R&D Systems).

Molecule	CGN survival after potassium withdrawal [1]	k a (ectodomain of IL-1RI; 10 mM sodium phosphate pH 7.4, 150 mM NaCl)	k d (ectodomain of IL-1RI; pH 7.4)	Binding to double-Ig module of NCAM (negative control) [2]	Neurite outgrowth from CGNs [3]	Effect on the neuritogenic effect of both IL-1Ra and Ilantide-t ([3]; IL-1β at 1.5 nM and 7.5 nM)	Inhibition of NF-κB activation induced by IL-1β [4]	Inhibition of IL-1β-induced TNF-α secretion in macrophages (AMJ2-C8 macrophages)
IGF-1: insulin-like growth factor 1, positive control [reference compound]	inhibited	–	–	–	–	–	–	–
IL-1β: recombinant interleukin 1β	–	8.56 ± 2.79 × 10^5 M^-1 s^-1	7.53 ± 2.03 × 10^-4 s^-1	no significant binding	did not have neuritogenic effects	significantly inhibited	–	–
sIL-1RI: soluble IL-1 receptor type I (recombinant ectodomain of IL-1RI) (protein) LEADKCKEREEKIILVSSANEIDVRPCPLNPNEHKGTITWYKDDSKTPVSTEQASRIHQHKEKLWFVPAKVEDSGHYYCVVRNSSYCLRIKISAKFVENEPNLCYNAQAIFKQKLPVAGDGGLVCPYMEFFKNENNELPKLQWYKDCKPLLLDNIHFSGVKDRLIVMNVAEKHRGNYTCHASYTYLGKQYPITRVIEFITLEENKPTRPVIVSPANETMEVDLGSQIQLICNVTGQLSDIAYWKWNGSVIDEDDPVLGEDYYSVENPANKRRSTLITVLNISEIESRFYKHPFTCFAKNTHGIDAAYIQLIYPVTNFQK	–	–	–	–	significantly induced neurite outgrowth	–	dose-dependently inhibited	significantly inhibited
